Data: patent US20250084143A1 (INSERM INSTITUT NATIONAL DE LA SANT ET DE LA RECHERCHE M …, published 2025)

Target: T1, biotin-tagged HLA-A*03:01 monomers (immunAware) (human, biotin tag)
T1 construct: Bought recombinant monomer folded with the test peptide; also called HLA-A3; A3
Experiment: flow cytometry on streptavidin beads: folding of biotinylated HLA-A*03:01 monomer around the peptide, detected with anti-b2m; 1.2 nM complex
Description: Experimental binding to HLA-A3 was measured by flow cytometry using biotin-tagged HLA-A*03:01 monomers (immunAware). […] The bead-associated fluorescence is only detected if the test peptide supports the folding of the HLA-A3 complex. […] The HLA-A3-binding peptide Flu NP₂₆₅₋₂₇₃ ([sequence]), and a non-binding peptide CHGA₃₈₂₋₃₉₀ ([sequence]) were included as positive and negative controls, respectively.
A first selection was performed based on a novel HLA Class I binding assay that we set up. Briefly, the same biotinylated recombinant HLA-A3 monomeric molecules that are used for MMr production are folded with the test peptides and captured on streptavidin-coated beads.

B1: SCG5-009 193-201 peptide (peptide)
peptide: RLKPSLVGK
notes: From the SCG5-009 mRNA splice variant
binding result: binds
